The values below come from the Immune Epitope Database (IEDB).

Broadly, the Kd is the concentration at which binding is half-saturated.

Common to all, as to assay: IEDB peptide-MHC binding, purified MHC/competitive/radioactivity; filed as Kd, often an IC50 or EC50 that approximates it; ≥ and ≤ were set here for values at or beyond the usual limits of such assays
For test [1], the target named is HLA-A*68:01.
For test [2], the target named is HLA-A*03:01.
Test [3] concerns the target HLA-A*11:01.
Test [4] has as its target HLA-A*33:01.
The target of test [5] is HLA-A*31:01.
The mark [6] stands for this setting: source organism: Lymphocytic choriomeningitis virus (strain Armstrong).
Where [7] appears, read: source organism: Vaccinia virus WR.
Where [8] appears, read: source organism: SARS coronavirus Tor2.
[9] abbreviates: source organism: Vaccinia virus Copenhagen.
The mark [10] stands for this setting: source organism: Mammarenavirus whitewaterense.
The mark [11] stands for this setting: source organism: Mammarenavirus choriomeningitidis.
Where [12] appears, read: source organism: Mammarenavirus lassaense.

TAVAKCNVNH: the Kd in test [1] (setting [6]) was at least 65300 nM; in test [2] (setting [6]), at least 70000 nM; in test [3] (setting [6]), at least 69700 nM; in test [4] (setting [6]), at least 66800 nM; in test [5] (setting [6]), at least 70000 nM.
TSSFREKSR: the equilibrium dissociation constant (Kd) in test [1] (setting [7]) was 132 nM; in test [2] (setting [7]), at least 65000 nM; in test [3] (setting [7]) it was 5750 nM; in test [4] (setting [7]) it was 844 nM; in test [5] (setting [7]), 132 nM.
For LLMPILTLTR, the Kd in test [1] (setting [8]) was 89.7 nM; in test [2] (setting [8]), 571 nM; in test [3] (setting [8]) it was 199 nM; in test [4] (setting [8]), 262 nM; in test [5] (setting [8]) it was 5.53 nM.
The matching figures for RQVVNVITTK: 305 nM, 114 nM, 216 nM, at least 39600 nM and 2670 nM.
Consider PVYISQFSYK, for which the equilibrium dissociation constant (Kd) was determined as 95.2 nM in test [1] (setting [9]); 1.26 nM in test [2] (setting [9]); 19.2 nM in test [3] (setting [9]); 54 nM in test [4] (setting [9]); 13.3 nM in test [5] (setting [9]).
With DTIESAKTK, the dissociation constant (Kd) was determined as 5.82 nM in test [1] (setting [7]); 4100 nM in test [2] (setting [7]); 672 nM in test [3] (setting [7]); 3590 nM in test [4] (setting [7]); 11300 nM in test [5] (setting [7]).
Turning to MQKESDDYIK, the Kd in test [1] (setting [8]) was 1550 nM; in test [2] (setting [8]) it was 13200 nM; in test [3] (setting [8]), 364 nM; in test [4] (setting [8]) it was at least 70000 nM; in test [5] (setting [8]), 5790 nM.
Turning to TLYVKALTK, the Kd in test [1] (setting [7]) amounted to 185 nM; in test [2] (setting [7]) it was 1.93 nM; in test [3] (setting [7]) it was 23.9 nM; in test [4] (setting [7]), 15500 nM; in test [5] (setting [7]) it was 2920 nM.
For the sequence DILGVLTIK, the Kd came out at 343 nM in test [1] (setting [7]); 714 nM in test [2] (setting [7]); 1120 nM in test [3] (setting [7]); 194 nM in test [4] (setting [7]); 12600 nM in test [5] (setting [7]).
In the case of PCMINDTHFL, the Kd in test [1] (setting [10]) was at least 40100 nM; in test [2] (setting [10]), at least 70000 nM; in test [3] (setting [10]), at least 46800 nM; in test [4] (setting [10]) it was at least 48500 nM; in test [5] (setting [10]), 11600 nM.
With WFFNNYLRK, the Kd in test [1] (setting [8]) was found to be 391 nM; in test [2] (setting [8]) it was 403 nM; in test [3] (setting [8]), 81.8 nM; in test [4] (setting [8]), 894 nM; in test [5] (setting [8]), 3880 nM.
For the sequence NQATTKTTFK, the dissociation constant (Kd) in test [1] (setting [8]) is 506 nM; in test [2] (setting [8]), 378 nM; in test [3] (setting [8]), 440 nM; in test [4] (setting [8]) it was at least 26500 nM; in test [5] (setting [8]), 4270 nM.
With SAYLISIFMH, the Kd in test [1] (setting [11]) was at least 70100 nM; in test [2] (setting [11]) it was 1230 nM; in test [3] (setting [11]) it was 5630 nM; in test [4] (setting [11]), 2950 nM; in test [5] (setting [11]) it was 659 nM.
For the sequence LSCTKNTSHH, the Kd was at least 43700 nM in test [1] (setting [12]); at least 70000 nM in test [2] (setting [12]); at least 69700 nM in test [3] (setting [12]); at least 70000 nM in test [4] (setting [12]); at least 43100 nM in test [5] (setting [12]).
Consider ISSKQYPAGR, for which the Kd in test [1] (setting [7]) came to 8.59 nM; in test [2] (setting [7]) it was 1020 nM; in test [3] (setting [7]) it was 128 nM; in test [4] (setting [7]) it was 317 nM; in test [5] (setting [7]) it was 5.62 nM.
The matching figures for MLEGETKLYK: 9180 nM, 20.6 nM, 63.4 nM, at least 70000 nM and at least 50400 nM.
The matching figures for SLENLDPDNK: 1360 nM, 2920 nM, 6.89 nM, at least 22400 nM and 17000 nM.
The matching figures for IVRTMPNESR: 401 nM, 241 nM, 16100 nM, 10700 nM and 4820 nM.
